Results on 13 sequences are retold here after the DeepSol protein solubility set.

The series can be described thus: soluble on expression in E. coli; label from the status in PepcDB or PDB records.
Consider “MSQTRTHEQVLAKEPWYHGLLPREDMKQLLTQRGDFLVRFTDPKVGEPRKFVLSVYVGVIEDIRHYVIREHNNKFAVDKKWFSSIADLLNYYHRSKEPVAGGPETVIIRPIGREPWEKQHSDVTLIKKLGEGAFGEVQLGEIRIGNTVKKAAIKLAKLESLTKEQIKEIMHEARLMRKFKHPNVVTFYGVAAGQEPLMVIMELADNGALDSYLKKNIGSLPISKKHTMVLQAGLGLEYLHSLQIIHRDIASRNCLYGNGQVKISDFGLSREGYSYRMNPHKKVPIRWLAPEVPRTGFYTPKTDVFAYGVMCWEVYHDGIEPYPGMKVAEVLPRVQNGYRMPFEANVPPAIVRFITYRICAGAEEERVTMSEAVRELLTLEGFDQAPGSNSYFELPDHIPMENIEQPKKIQVSNILPYMSKPVAPPFEPERQEKTQEMRKSMSNSAEEGVKKNRRPVRTRIRNGNSPSPGFKSQSRSAAENQNKSNLKAVQKKKNNKQSSSISGDAPSTFSVLGVFGKKKNTADRSDLKKLEEF”, for which the “soluble on expression in E. coli” value is “not soluble”.
For the sequence “MVITKIVGHIDDLSHQIKKVDWLEVEWEDLNKRILRKETENGTDIAIKLENSGTLRYGDVLYESDDTLIAIRTKLEKVYVIKPQTMQEMGKMAFEIGNRHTMCIIEDDEILVRYDKTLEKLIDEVGVSYEQSERRFKEPFKYRGHQH”, the “soluble on expression in E. coli” value is recorded as “soluble”.
In the case of “MRYSDGRYEADIDITVEEWKSMLQNPKIFGPKYLDMILKWYYEIDHRATSQAIMAKYPSELKGTPYNGYVIGLTNRIIKYLNRFEVIGTQGNESKFIVPFEGWYEDYKEGNHFVWKVRDELVQAIEELGLVDEKKFPSEEEELKSYSIENRKDGKIIMRYTTQYERNPINRRNAIRIHGTVCQGCGFDFEKVYGEIGKDYIEVHHIKPLYEGGGSVPINAETDLICVCANCHRMIHRRKDKVLSLKELQKLLLANKNLEHHHHHH”, the “soluble on expression in E. coli” value was “soluble”.
Turning to “MDGSVVRHEERLNVGKERVESGRMRIRKHVVHDTETVEVPVEREEIHVERVPLDEKVAADDAKLSEGTQDIVTHEERPVVNKETVGVEKIKIGKEAVQDTETVSGKVAKEQIDIDNAKHTKLEHHHHHH”, the “soluble on expression in E. coli” value is “not soluble”.
“MKFSSLLQDTAAIDVFIKILTSVSKLSKKRCCVKIEKNALNFICCSGLHDGGSWFSLSIPYSSQIFRKFDMVGMNPRNEEQNLIYFELEIDSLVRVLPGGHCYLKLKLSKSQKDEPMLSVEVRNPEADIVSHQIPITIILSKYWNSYSRPSIGHRKMSISMPPPKMMSRFLHVFKNMNTRVVKLTASTSGDLRISTKIETGEIDVSFSDLQTNPSETDSQEDTAKVQLMIRNISPLFQSFANTRTRAKMNIISNRMAEFNFHNEDCVLSYIVGNVSD”: the “soluble on expression in E. coli” value is “not soluble”.
Take “MYRAGAVLLRGATRTRLLAAASAHQSFATFSQRNQSILMMKSMELAGNSGERRFYSTHDDPIAVDDSLELYKDLGGMSPIQVPADMPNVPMLAINRYPLFPGFIKKVDIVKDDNLKALIRRQLSLKQPYAGVFVKRDDENKEETITSLSEVYPTGSFVQIIEVRDQGSVLELVLSAHRRIRALEPIDEITPKNETPLNGRRARGKRAASATSPLTPPPSPPPLAPSVASVAPEISATEEKEEKTTPPSATGEKQKKGIIMVRTENVVAEPVPKNNETKATMMAIVQTIRDVVQFNQLFGQQINLLLHPSQNVIDNPVYLCDLVATLVQSAETKDLQEMMDEIDVSKRLKIALLLIQKEKAVAKLKYDINKDVEKKVQDHHRKYLLNEQLKVIKKELGIEKDEKTTIIEKIDERIKTLAVPEYALKVINEEKTKLQFLDPHSSEFSVTRNYLEWLTSVPWGLTSPENRRLSVAKKALDEGHYGMKDVKERIMEFIAVNLLRKSIGGKILCFHGPPGVGKTSIAKSIATALNREYFRFSVGGMTDVAEIKGHRRTYVGAMPGKMIQCMKKVKTENPLVLIDEVDKIGGAGFHGDPASALLELLDPEQNANFNDHFLDVPVDLSRVLFICTANEISKIPGPLRDRMEMIDVSGYLAEEKVEIAHQHLIPQLRKDTSLATEQLKIEDSALEELIKHYCRESGVRNLQQHIERIFRKAALQIAEQQNEDEEPAEKATTAITENSEAEPITSTSSADCLKSSAEQIVVCTENLQKFVGRPKFTSDRMYEVTPPGVIMGLAWTAMGGSALYIETVLKRPVDLTNDKDGSIETTGNLGDVMKESVRTALTVAKGILAREQPDNKFFDKAHIHIHVPEGATPKDGPSAGVTLVSSLLSLALDRPVVQDMAMTGEISLTGKVLPVGGIREKVIAARRVGAKRVFLPNENRRDFDDLPEFMKSELDIRFVSHYDELYEHLFQ”: the “soluble on expression in E. coli” value was “not soluble”.
In the case of “MTMPYYASAEQIMRDRSELARKGIARGRSVVVLTFRDGVLFVAENPSTALHKVSELYDRLGFAAVGKYNEFENLRRAGIVHADMRGYSYDRRDVTGRSLANAYAQTLGTIFTEQPKPYEVEICVAEVGRVGSPKAPQLYRITYDGSIVDEQHFVVMGGTTEPIATAMRESYRADLDLEAAVGIAVNALRQGGAGEGEKRNVDVASLEVAVLDQSRPRRAFRRIAGTALEQLVPAEPAAASESAPEPKPDTETKPADTQD”, the “soluble on expression in E. coli” value is listed as “soluble”.
Regarding “ENALIGVNDHTLVTENDGRRWVTREPAIVYFHKKYWFNIIAMIRETGVSYYCNLASPYILDPEALKYIDYDLDVKVFADGEKRLLDVDEYEQHKAQMNYP”, the “soluble on expression in E. coli” value is “not soluble”.
As to “MHSLTSRAPAEPDERLQALKRLIGKVTPQIGLNDVCKTSIPDLTFYRMDKLATPTYCIYEPCVAIILQGAKEITFGEQACEFAQGSFFVTSVDIPTLARVTAASEQTPYLSIVLKLDLSMLNDVIQTQAPLKQEATPEARGFASGMASSEMLDAFARLSALTGQPLEAGLMSDLIKREICVRLLLSCAGQWLRSVTRDGYRDKGIVRAIEWLKLHYDEPLHVAQLAQLSGMASSTLHHNFRKLTGTSPVQYQKSLRLQAARSLMLTERVDVNTAALRVGYESVAQFSREYARRFGAPPSRDIKYAREAGGRRD”, the “soluble on expression in E. coli” value was “not soluble”.
With “SDNGDWGHRLTHPVTLNVGGHLYTTSISTLQRYPDSMLGAMFRGDFPTTRDAQGNYFIDRDGTLFRYILNFLRTSELTLPVDFTELDLLRKEADFYQIEPLIQCLNDPKPLYPLDTFEQVVELSSTRKLSKYSNPVAVIITQLTITTKVHSLLEGISNNFTKWNKHMMDTRDCQVSFTFGPCDYHQEVSLRVHLMDYITKQGFTIRNTRVHHMSERANENTVEHHWTFCRLAYKVED”, the “soluble on expression in E. coli” value is “soluble”.
Under “MGSDKIHHHHHHMVNGNITQLSDMQIPENWGAYLAEKSTQNNAFFTSGVVQNVPQIAALLGAGKVANMPLFKPLADDDPQVPDDTTDLLVNKITTDLAQARKLGFDQAWSATDLSAELSGADPLSAIGDQVSDYWSHVYEKLLLQTLTGVFSSTSMKGVNQLDTTTDKTDTTFSLKNFNKARFLLGDRYKDLAIVAVHSDILRQLQDANLVDAKNNSTFVLNGNSNVPTAIQTPDAGDKIKGVQIVVDDSLPVDNGKYTSYLFAQGAVGYSELPVTNAVETNRDPLKNHGIDYLVNRRRFVFAPQGLSWNESNFVTKNPGKTYPSMTDLADGTNWSKVYDHKLIPMAQFVTSADAIVPSTTADPQTGK” stands “not soluble”.
Regarding “MGSDKIHHHHHHQRDLWNIFKLWGWTMLCCDFLAHHGTDCWTYHYSEKPMNWQRARRFCRDNYTDLVAIQNKAEIEYLEKTLPFSRSYYWIGIRKIGGIWTWVGTNKSLTEEAENWGDGEPNNKKNKEDCVEIYIKRNKDAGKWNDDACHKLKAALCYTASCQPWSCSGHGECVEIINNYTCNCDVGYYGPQCQFVIQCEPLEAPELGTMDCTHPLGNFSFSSQCAFSCSEGTNLTGIEETTCGPFGNWSSPEPTCQVIQCEPLSAPDLGIMNCSHPLASFSFTSACTFICSEGTELIGKKKTICESSGIWSNPSPICQKLDKSFSMIKEGDYN”, the “soluble on expression in E. coli” value is “not soluble”.
Take “MGSDKIHHHHHHMQFLKVYSVFGEEVVGCHVRIENLSVACSVVSAGGTHPSEKCVCNHEFSSVSLHQKKHPHLEKLLETSRPIKLDSSSKVLILSDLHMGNGGRRDEFRRNSELVRSMLQDYYLPGGYSLVLNGDIEELFKFSVEDITKVWGHIYDLFLQFEKNGFFWKTYGNHDSDLFEERNYPLSKHLLESIRFQYGDEVMLLFHGHQASILLWETYPLVSRAVVLFLRYVAKPIGIRNFSTAYNSRRRFAIEKSIYEFSNQAKIVSIIGHTHRPLFESLSKVDHLKYKIEELCRQYPSALPEERLAIQERIGELKAMLDACFTEGKKIGLRSGRYNNIAIPSVFNSGCAIGKRGVTALEIDGDRIRLVYWFKEKQGRRFVSDRNSEPEQLGDTGFYRIVLNEDHLDYVFSRIRLLA”: the “soluble on expression in E. coli” value is reported as “not soluble”.
